# From patent US20190309074A1, “DEGLYCOSYLATED ANTIBODY SPECIFICALLY BINDING TO CLEC14A AND USES THEREOF” (WOORI TECHNOLOGIES CORPORATION, priority 2016, published 2019)
# Assays:
# [1] = system: VEGF-dependent tube formation; assay: VEGF-dependent HUVEC tube formation assay; assay type: cell-based, human; conditions: 20 μg ml^−1, 18 hours
# Experimental: (§1) In order to investigate in vitro effects of deglyco C1 IgG on VEGF-dependent angiogenesis, HUVECs were treated with VEGF in the presence or absence of deglyco C1 IgG, and then HUVEC tube formation assay was conducted. 150 μl of Matrigel was added to a 48-well plate and incubated at 37° C. for 30 minutes. HUVEC (10^5) cultured in EGM-2 were collected, seeded on the Matrigel-coated plate and incubated at 37° C. for 18 hours in the presence or absence of clone 1 IgG, parent antibody IgG, deglycosylated clec14a-CTLD IgG or bevacizumab. HUVECs cultured in VEGF-containing EBM (endothelial cell basal medium) were seeded to the Matrigel-coated plate and incubated at 37° C. for 18 hours in the presence or absence of deglyco C1 IgG (20 μg ml^−1).
# [2] = system: HUVEC tube formation; assay: HUVEC tube formation assay; assay type: cell-based, human; conditions: branches as % of MOCK
# Experimental: Genetic mutation introduced during antibody engineering induces unpredicted defects, resulting in deterioration in antibody functions. In order to isolate antibodies for suppressing clec14a-mediated angiogenesis, tube formation and endothelial cell migration assay using human umbilical vein endothelial cells (HUVECs) were conducted in the presence or absence of clone 1 IgG and deglyco C1-C4 IgGs. Among the four types of deglyco IgGs, deglyco C1 IgG was selected as a candidate antibody. […] In addition, it can be seen that deglyco C1 IgG includes desired alterations (N32R/N33C/S34G) in the amino acid sequence in light chain CDR1.
# In order to compare in vitro angiogenesis suppression effect between deglyco C1 IgG and bevacizumab, tube formation and migration assay were conducted in the presence or absence of parent antibody IgG, deglyco C1 IgG or bevacizumab as a positive control group.
# as §1
# [3] = system: phosphorylation of VEGFR, Akt and ERK; assay: immunoblot of VEGF-dependent signaling in HUVECs; assay type: cell-based, human; conditions: VEGF-treated HUVECs
# From the text: In order to investigate effects of deglyco C1 IgG on VEGF-dependent signaling actions in endothelial cells, VEGF-treated HUVECs were subjected to immunoblot analysis in the presence or absence of deglyco C1 IgG to monitor changes in phosphorylation of VEGFR (VEGF receptor), Akt and ERK (extracellular signal-regulated kinase).
# [4] = system: VEGF-dependent blood vessel growth in rat aorta; assay: ex vivo rat aortic ring assay; conditions: cultured in combination with VEGF
# Experimental: In order to further investigate effects of deglyco C1 IgG on VEGF-dependent angiogenesis, ex vivo rat aortic ring assay was conducted in the presence or absence of deglyco C1 IgG and bevacizumab. Blood vessels were almost not grown in the rat aorta in endothelial basal medium (EBM), whereas most blood vessels were grown in the rat aorta under VEGF expression conditions.
# [5] = system: HUVECs; assay: HUVEC morphology by immunocytochemistry; assay type: cell-based, human
# Experimental: In addition, the morphology of HUVEC was evaluated in the presence or absence of deglyco C1 IgG using immunocytochemistry. […] In order to evaluate effects of deglyco C1 IgG on the activity of endothelial cells, which is an initial inflammatory response to a harmful stimulus, HUVECs were treated with deglyco C1 IgG, and expression of an endothelial cell activity marker including VCAM-1 (vascular cell adhesion molecule-1) and ICAM-1 (intercellular cell adhesion molecule-1) was measured to monitor HUVEC activity. Human tumor necrosis factor-alpha (hTNFα) was used as a positive control group for endothelial cell activity.
# In order to investigate correlations between tumor angiogenesis and clec14a, first, xenograft tumor models including SNU182 human liver cell or CFPAC-1 human pancreatic cancer cell carcinomas were established, and immunohistochemistry was conducted on commercially available antibodies of clec14a and CD31, which is a well-known endothelial marker protein. Immunohistochemistry was conducted as follows. HUVECs (5×10^4) grown on a 0.1% (w/v) gelatin-coated glass cover slip were incubated in the presence or absence of deglyco C1 IgG for 24 hours at 37° C. […]
# [6] = aggregation and purification amounts of deglycosylated antibodies, before and after φ; assay type: physicochemical; conditions: based on 100 ml culture
# [7] = system: VEGF-dependent microvessel formation; assay: mouse Matrigel plug assay, VEGF-dependent microvessel formation; assay type: in vivo
# Experimental: In order to observe in vivo efficacies of deglyco C1 IgG on VEGF-dependent angiogenesis, a mouse Matrigel model was established, hemoglobin level was measured as a marker of microvessel formation, and inhibitory activities against microvessel formation of deglyco C1 IgG and bevacizumab were compared by a mouse Matrigel plug assay.
# [8] = system: HEK293F cells transfected with wild-type clec14a; assay: clec14a-mediated cell-cell contact (cell aggregate) assay; assay type: cell-based, human
# From the text: In order to identify the mechanism by which deglyco C1 IgG acts on angiogenesis, the number of cell aggregates formed from HEK293F cells transfected with wild-type clec14a and cultured in the presence or absence of parent antibody IgG or deglyco C1 IgG was monitored to conduct functional assay on clec14a-mediated cell-cell contacts.
# The parent antibody IgG was used as a positive control group to specifically block clec14a-mediated cell-cell contacts.
# [9] = system: U87 human glioma; assay: U87 tumor growth; assay type: in vivo
# [10] = system: HUVECs; assay: HUVEC viability (cell counting Kit-8); assay type: cell-based, human; conditions: 2 days
# Experimental: In order to evaluate effects of deglyco C1 IgG on toxicity of endothelial cells, after treatment with deglyco C1 IgG, viability of HUVECs was measured. Viability was measured in accordance with the manufacturer's manual through cell counting Kit-8 (#CK04-13, Dojindo Laboratories, Kumamoto, Japan).
molecule,measurement,setting,value
"deglyco C1 IgG: deglycosylated clone 1 IgG; light chain CDR1 TGSSSNIGRCGVT (SEQ ID NO: 2), N32R/N33C/S34G (antibody, V domains shown) VH: EVQLVESGGGLVQPGGSLRLSCAVSGFTFSGYDMSWIRQAPGKGLEWVAGIYPDGGNTYYADSVKGRFTISRDDSKNTFYLQMNSLRAEDTAVYYCARGATWWVLGPFDYWGQGTLVTVSS VL: DIQLTQSPSSLSASVGDRVTITCTGSSSNIGRCGVTWYQQKPGKAPKLLIYADSHRPSGVPSRFSGSGSGTDFTLTISSLQPEDFATYYCGAWDDSLSGYVFGQGTKVEIKR",VEGF-dependent tube formation,[1],removed VEGF-dependent tube formation significantly and almost perfectly
same,inhibitory activity against HUVEC tube formation,[2],most excellent inhibitory activity
same,inhibitory activity against HUVEC tube formation,[2]; listed as Deglyco C1 IgG,significantly suppressed
same,"VEGF-dependent phosphorylation of VEGFR, Akt and ERK",[3],almost no effect
same,number of blood vessels grown in the rat aorta,[4],reduced the number of blood vessels grown in the rat aorta
same,morphology of HUVECs,[5],did not change the morphology
same,"Final um, After φ",[6],4.821 mg
same,"Final um, Before φ",[6],4.859 mg
same,"Fraction1, After φ",[6],0.009 mg
same,"Fraction1, Before φ",[6],0.011 mg
same,"Fraction2, After φ",[6],3.763 mg
same,"Fraction2, Before φ",[6],3.792 mg
same,"Fraction3, After φ",[6],0.921 mg
same,"Fraction3, Before φ",[6],0.938 mg
same,"Fraction4, After φ",[6],0.128 mg
same,"Fraction4, Before φ",[6],0.129 mg
same,hemoglobin content (microvessel formation),[7],significantly reduced a hemoglobin content
same,inhibition of clec14a-mediated cell-cell contacts (cell aggregates),[8],inhibitory efficacy
same,body weight,[9]; U87 tumor model,no impact on body weight
same,tumor size of U87 cells,[9]; measured weekly for one month,significantly reduces the tumor sizes
same,viability of HUVECs,[10],did not exhibit cytotoxic effects
